Results taken from publication PMC3670934, “Milligram Production and Biological Activity Characterization of the Human Chemokine Receptor CCR3” (PLoS ONE, 2013).

B1: Human chemokine receptor CCR3 with a C-terminal 10-His tag (receptor, UniProt P51677 1-355, looked up)
chain: MTTSLDTVETFGTTSYYDDVGLLCEKADTRALMAQFVPPLYSLVFTVGLLGNVVVVMILIKYRRLRIMTNIYLLNLAISDLLFLVTLPFWIHYVRGHNWVFGHGMCKLLSGFYHTGLYSEIFFIILLTIDRYLAIVHAVFALRARTVTFGVITSIVTWGLAVLAALPEFIFYETEELFEETLCSALYPEDTVYSWRHFHTLRMTIFCLVLPLLVMAICYTGIIKTLLRCPSKKKYKAIRLIFVIMAVFFIFWTPYNVAILLSSYQSILFGNDCERSKHLDLVMLVTEVIAYSHCCMNPVIYAFVGERFRKYLRHFFHRHLLMHLGRYIPFLPSEKLERTSSVSPSTAEPELSIVF
notes: human chemokine receptor CCR3; theoretical molecular weight with the tag 42 kDa; The form full length is read from the printed primers (start codon to the last codons of the gene, then tag and stop); By the reverse primer two glycine codons seem to lie between the last CCR3 residue and the ten histidines (surmised from the primer); also called hCCR3; source: also in detergent cell lysate; not …
B2: CCL24 (eotaxin-2), home-made recombinant (ligand, human, UniProt O00175 27-119, looked up)
chain: VVIPSPCCMFFVSKRIPENRVVSYQLSSRSTCLKAGVIFTTKKGQQFCGDPKQEWVQRYMKNLDAKQKKASPRARAVAVKGPVQRYPGNQTTC
notes: CCL24 (eotaxin-2), endogenous ligand of human CCR3; The detailed protocol is said to be submitted in a separate manuscript; Probably the mature chemokine without its signal peptide (surmised); also called eotaxin-2/CCL24; home-made CCL24
B3: commercial recombinant human CCL24 (PeproTech) (ligand, UniProt O00175 27-119, looked up)
chain: B2 chain
notes: recombinant human chemokine CCL24, bought; No catalogue number printed; probably the mature chemokine (surmised); also called CCL24 from PeproTech; commercial CCL24; source: bought: PeproTech (USA)
B4: CCL11 (eotaxin), home-made recombinant (ligand)
chain: not shown
notes: CCL11 (eotaxin), endogenous ligand of human CCR3; The detailed protocol is said to be submitted in a separate manuscript; Probably the mature chemokine without its signal peptide (surmised); also called eotaxin/CCL11; home-made CCL11
B5: commercial recombinant human CCL11 (PeproTech) (ligand)
chain: not shown
notes: recombinant human chemokine CCL11, bought; No catalogue number printed; probably the mature chemokine (surmised); also called CCL11 from PeproTech; commercial CCL11; source: bought: PeproTech (USA)

Legend:
[1] = molecular target: the molecule itself; experiment: SDS-PAGE and western blot; hCCR3 after Ni affinity chromatography in FC-14; 4-12% NuPAGE Bis-Tris gel, LDS sample buffer with reducing agent, not heated; anti-His blot; bands at about 34, 58, 82 and 115 kDa
[2] = molecular target: B1; experiment: SPR; Biacore T100; His-tagged hCCR3 immobilised on a Ni-activated NTA sensor chip, chemokine flowed at 30 µl/min; 25°C; 10 mM HEPES, 0.15 M NaCl, 0.1% (wt/vol) FC-14, pH 7.4; hCCR3 purified in FC-14; 1:1 binding model, KD = kd/ka; settings: both partners purified
[3] = molecular target: B1; experiment: SPR; Biacore T100; His-tagged hCCR3 immobilised on a Ni-activated NTA sensor chip, chemokine flowed at 30 µl/min; 25°C; 10 mM HEPES, 0.15 M NaCl, 0.1% (wt/vol) DDM, pH 7.4; hCCR3 purified in DDM; 1:1 binding model, KD = kd/ka; settings: both partners purified
[4] = molecular target: B1; experiment: SPR; Biacore T100; His-tagged hCCR3 immobilised on a Ni-activated NTA sensor chip, chemokine flowed at 30 µl/min; 25°C; 10 mM HEPES, 0.15 M NaCl, 0.1% (wt/vol) FC-14, pH 7.4; hCCR3 purified in FC-14; 1:1 binding model, KD = kd/ka; settings: both partners purified; remark: listed apart in the source
[5] = molecular target: B1; experiment: SPR; Biacore T100; His-tagged hCCR3 immobilised on a Ni-activated NTA sensor chip, chemokine flowed at 30 µl/min; 25°C; 10 mM HEPES, 0.15 M NaCl, 0.1% (wt/vol) DDM, pH 7.4; hCCR3 purified in DDM; 1:1 binding model, KD = kd/ka; settings: both partners purified; remark: listed apart in the source

Q: Does B1 bind [1]?
A: binds

Q: Which results are given for B2?
A: kon [2]: 23000 M⁻¹ s⁻¹; Kd [3]: 58 nM; koff [3]: 0.003 s⁻¹; kon [3]: 51000 M⁻¹ s⁻¹; Kd [4]: 1600 nM; koff [4]: 0.037 s⁻¹; kon [4]: 22000 M⁻¹ s⁻¹

Q: For B3, which Kd [5] is on record?
A: 210 nM

Q: Which results are given for B4?
A: Kd [3]: 70 nM; koff [3]: 0.017 s⁻¹; kon [3]: 250000 M⁻¹ s⁻¹; Kd [4]: 1300 nM; koff [4]: 0.063 s⁻¹; kon [4]: 49000 M⁻¹ s⁻¹

Q: For B5, which Kd [5] is on record?
A: 730 nM
